# Measured values from patent US10881612B2, “Cationic liposomes for cancer immunotherapy” (The Methodist Hospital, priority 2015, dated 2021).
# B1: IL-12: Recombinant mouse IL-12 purchased from R&D Systems (protein, UniProt P43431 23-215; P43432 23-335, looked up)
# Interleukin-12 subunit alpha: RVIPVSGPARCLSQSRNLLKTTDDMVKTAREKLKHYSCTAEDIDHEDITRDQTSTLKTCLPLELHKNESCLATRETSSTTRGSCLPPQKTSLMMTLCLGSIYEDLKMYQTEFQAINAALQNHNHQQIILDKGMLVAIDELMQSLNHNGETLRQKPPVGEADPYRVKMKLCILLHAFSTRVVTINRVMGYLSSA
# Interleukin-12 subunit beta: MWELEKDVYVVEVDWTPDAPGETVNLTCDTPEEDDITWTSDQRHGVIGSGKTLTITVKEFLDAGQYTCHKGGETLSHSHLLLHKKENGIWSTEILKNFKNKTFLKCEAPNYSGRFTCSWLVQRNMDLKFNIKSSSSSPDSRAVTCGMASLSAEKVTLDQRDYEKYSVSCQEDVTCPTAEETLPIELALEARQQNKYENYSTSFFIRDIIKPDPPKNLQMKPLKNSQVEVSWEYPDSWSTPHSYFSLKFFVRIQRKKEKMKETEEGCNQKGAFLVEKTSTEVQCKGGNVCVQAQDRYYNSSCSKWACVPCRVRS
# What was measured:
# 4T1 breast cancer cells = test: Cytotoxicity of cationic liposomes by propidium iodide flow cytometry; assay type: cell-based, mouse; conditions: 4T1 cells, 4 μg/mL liposomes or free MPL (250 ng), 24 hours, n=3
# Experimental: (§1) The cytotoxicity of cationic liposomes to 4T1 breast cancer cells was evaluated by flow cytometry using propodium iodide (PI). Using a 24 well plate format, cells were treated with 4 μg control or MPL liposomes, or free MPL (250 ng) for 24 hours. Cells were released using trypsin and treated with PI according to manufacturer's protocol (Invitrogen). Samples were analyzed using a LSR II™ Flow Cytometer (BD Biosciences, Mountain View, Calif., USA) equipped with […] ™ software (2007). In vivo tumor cytotoxicity of cationic liposomes was evaluated in BALB/c mice bearing 200 mm^3 4T1 tumors 24 hours following intratumoral injection of liposomes (50 μL; 1 mg lipid). […]
# (§2) The cytotoxicity of cationic liposomes to 4T1 breast cancer cells was evaluated by flow cytometry using propidium iodide (PI). […] Samples were analyzed using a LSR II® Flow Cytometer (BD Biosciences. Mountain View, Calif., USA) equipped with […] ™ software (2007). In vivo tumor cytotoxicity of cationic liposomes was evaluated in BALB/c mice bearing 200 mm^3 4T1 tumors 24 hr following intratumoral injection of liposomes (50 μL; 1 mg lipid). Excised tumors were embedded in paraffin, sectioned, and stained with hematoxylin/eosin, or analyzed for apoptosis using the DeadEnd® Fluorometric TUNEL System (Promega Corp., Madison. Wis., USA).
# [1] = system: 4T1 orthotopic breast tumors; test: Therapeutic efficacy study, intratumoral injection; assay type: in vivo, BALB/c mice; conditions: intratumoral injection once a week for two weeks
# Experimental: Breast cancer tumors were established in BALB/c mice by intramammary injection of 1×10^5 4T1-luciferase cells. When tumors reached a median size of 100-200 mm^3, mice were administered intratumoral injections as follows: PBS control, Free MPL (6.25 μg), control liposomes (50 μL; 1 mg lipid); MPL liposomes (50 μL), and IL-12 (5 μg) with/without MPL liposomes. Tumor growth was monitored by caliper measurements three times per week and by luciferase expression measured weekly using the Xenogen IVIS-200 System (Perkin Elmer Inc., Waltham, Mass., USA) following intra-peritoneal injection of 75 mg/kg RediJect D-Luciferin (Perkin Elmer Inc.), 24-26 days after initiation of tumor growth, mice were sacrificed, blood was collected by retro-orbital bleeding, and tumor and spleen were collected for immunohistochemical, weight, and size analysis. Dual tumors were grown in naïve mice using the same experimental conditions with intratumoral injection of particles limited to a single tumor.
# Breast cancer tumors were established in BALB/c mice by intramammary injection of 1×10^5 4T1-luciferase cells. When tumors reached a median size of 100-200 mm^3, mice were administered intratumoral injections as follows: PBS control. Free MPL (6.25 μg), control liposomes (50 μL; 1 mg lipid): MPL liposomes (50 μL), and IL-12 (5 μg) with/without MPL liposomes. […]
# 4T1 tumors [2] = test: In vivo tumor cytotoxicity (H&E and TUNEL staining) after intratumoral injection; conditions: 24 hours after intratumoral injection
# Experimental: as §1, §2
# serum cytokines = test: Multiplex bead ELISA of serum cytokines; assay type: in vivo, BALB/c mice; conditions: 5 hours after intratumoral injection
# Experimental: Serum cytokines were analyzed 5 hours after intratumoral injection of liposomes using a mouse cytokine magnetic 10-plex panel kit (Invitrogen, Carlsbad, Calif., USA) for the Luminex® platform. Following retro-orbital eye bleed, plasma was collected by centrifugation at 1500 g for 10 minutes at 4° C. and stored at −80° C. Plates were prepared using 25 μL/well of the antibody-bound head. After 2 washes, 50 μL serum and 50 μL assay diluent (or 100 μL standard) were added and plates were incubated at room temperature for 2 hours on an orbital shaker. After two washes, 100 μL of biotinylated detector antibody was added to the heads and they were incubated for an additional hour, followed by two more washes and the addition of 100 μL streptavidin-RPE for 30 minutes. After a final two washes, beads were suspended in 125 μL wash solution and inserted into the XY platform of a Luminex MAGPIX Instrument (EMD Millipore, Billerica, Mass. USA). The assay protocol was designed using xPONENT software and samples were run at 100 events/bead region.
# Multiplex Bead ELISA. Serum cytokines were analyzed 5 hr after intratumoral injection of liposomes using a mouse cytokine magnetic 10-plex panel kit (Invitrogen, Carlsbad, Calif. USA) for the Luminex® platform. Following retro-orbital eye bleed, plasma was collected by centrifugation at 1500×g for 10 min at 4° C. and stored at −80° C. […]
# 4T1 tumor [3] = test: Immune phenotyping of tumor immunocytes by flow; assay type: in vivo, murine; conditions: 24 hours after treatment, preliminary
# 4T1 tumor [4] = test: V-sense 19F MRI / confocal tracking of macrophage infiltration into tumor; assay type: in vivo, mice; conditions: after IL-12 intratumoral injection, tumors extracted 24 hours post imaging
# Description: Macrophage accumulation has been documented to contribute to cancer progression through suppression of the immune response and promotion of tumor vascularization (Mielgo et al., 2013). V-sense is a perfluorocarbon emulsion that is taken up by monocytes and macrophages, allowing for in-vivo detection through ^19F MRI. Ahrens, et al. (2011) successfully quantified V-sense in inflamed tissues of the central nervous system in an ex-vivo model of allergic encephalomyelitis, which they correlated with immunohistochemistry to confirm co-localization of V-sense emulsion droplets and macrophages. Hitchens et al. (2011) detected perfluorocarbon-labeled macrophages in a model of cardiac allograft rejection, which was confirmed via immunohistochemistry and histology. V-sense was used to study the impact of IL-12 on macrophage infiltration into the tumor (FIG. 8). […] Confocal images in FIG. 8B show V-sense (red) uptake by Celltracker™ Green RAW cells.
# 4T1 tumors [5] = test: Immunofluorescence of tumor sections (cellular phenotype of tumor microenvironment); assay type: in vivo, BALB/c mice
# Experimental: Tissues were quick frozen in OCT (Tissue-Tek) and stored at −80° C. Tissue sections (10 μm) were fixed with ice-cold acetone for 15 minutes at −20° C. and washed three times with IX PBS using trays followed by blocking with 5% fetal bovine serum in PBS. Fluorescence-labeled antibodies [e-flour 615 CD8 (clone 53-6.7; 1:50), e-flour 570 Ki-67 (clone solA15: 1:100; eBioscience, San Diego, Calif., USA); FITC F4/80 (MCA497A488; 1:100), Alexa Fluor 647 CD204 (MCA1322; 1:100, AbD Serotec, Raleigh N.C., USA); and 33D1 (1:100, BD Biosciences, San Jose. Calif.: 1:500 secondary anti-rat IgG Alexa Fluor® 546; Invitrogen) and iNOS (6/iNOS/NOS; 1:100 BD Biosciences, San Jose, Calif., USA; 1:500 anti-rabbit IgG-TRITC, Jackson Immunoresearch Labs, Inc. West Grove, Pa., USA)] were incubated with tissues overnight at 4° C. in the presence of 5% FBS. Slides were then washed three times with PBS and mounted with ProLong® Gold AntiFade with DAPI (Invitrogen). Images were taken using an A1 Nikon confocal microscope and the percent positive cells were determined by manual counting of four arbitrary regions in random samples.
# Tissues were quick frozen in OCT (Tissue-Tek) and stored at −80° C. Tissue sections (10 μm) were fixed with ice-cold acetone for 15 min at −20° C. and washed three times with 1×PBS using trays followed by blocking with 5% fetal bovine serum in PBS. Fluorescently-labeled antibodies [eFluor® 615 CD8 (clone 53-6.7; 1:50), eFluor® 570 Ki-67 (clone solA15; 1:100; eBioscience, San Diego, Calif. USA); FITC F4/80 (MCA497A488; 1:100), Alexa-Fluor® 647 CD204 (MCA1322; 1:100, AbD Serotec, Raleigh N.C. USA); and 33D1 (1:100, BD Biosciences, San Jose, Calif.; 1:500 secondary anti-rat IgG Alexa-Fluor® 546: Invitrogen) and iNOS (6/iNOS/NOS; 1:100 BD Biosciences. San Jose. Calif., USA; 1:500 anti-rabbit IgG-TRITC. Jackson ImmunoResearch Laboratories. Inc., West Grove, Pa. USA)] were incubated with tissues overnight at 4° C. in the presence of 5% FBS. Slides were then washed three times with PBS and mounted with ProLong® Gold AntiFade® with DAPI (Invitrogen). Images were obtained using a confocal microscope (A1 Nikon), and the percent-positive cells were determined by manual counting of four arbitrary regions in random samples.
Molecule,cell death (propidium iodide uptake) (4T1 breast cancer cells) [%],tumor growth (caliper measurements) [1],cell death in tumor (TUNEL staining) (4T1 tumors [2]),serum IFN-γ (serum cytokines),CD4+ T cells in the tumor (4T1 tumor [3]),CD8+ T cells in the tumor (4T1 tumor [3]),MDSC in the tumor (4T1 tumor [3]),V-sense signal distribution in tumor (macrophage infiltration) (4T1 tumor [4]),"CD8+ (cytolytic) T cells in the tumor (change) (4T1 tumors [5]; mouse, in vivo)","F4/80+ macrophages in the tumor (change) (4T1 tumors [5]; mouse, in vivo)","iNOS in tumors (change) (4T1 tumors [5]; mouse, in vivo)","increase in iNOS (nitric oxide synthase) expression in the tumor above basal levels (4T1 tumors [5]; mouse, in vivo) [fold]","33D1+ dendritic cells in the tumor (change) (4T1 tumors [5]; tumor sections, immunofluorescence)"
monophosphoryl lipid A [free MPL],16,did not slow tumor growth,Minimal cell death,–,–,–,–,–,–,–,–,–,–
B1,–,–,–,increase,increases,increases,decreases,strong penetration of V-sense signal into tumor tissue,increased,increased,enhancing production,3,increased
